According to PMC5526789, “Structure of Full-Length SMC and Rearrangements Required for Chromosome Organization” (Molecular Cell, 2017):
Values belong to the molecule of their own block, whether it stands above or below them.

How the values were obtained:
[1] = biological target: BsSmcH-CC8(N634C) (Bacillus subtilis) (UniProt P51834); assay: cross-linking; subunit exchange: equal amounts of two purified single-cysteine proteins mixed on ice, incubated at 37°C in 50 mM Tris-HCl pH 7.4, 200 mM NaCl, 1 mM TCEP; aliquots cross-linked with 200 µM BMOE (R558C to N634C at the hinge dimer interface); SDS-PAGE and Agilent 2100 Bioanalyzer; dimer to monomers
[2] = biological target: Smc(D193C, mH, E1118Q)-HaloTag (Bacillus subtilis) (UniProt P51834); assay: cross-linking; in vivo cysteine cross-linking: intact B. subtilis cells grown in SMG, 0.5 mM BMOE on ice; Smc-HaloTag labelled with HaloTag-TMR, SDS-PAGE, in-gel fluorescence; S152C and D193C report juxtaposed (disengaged) heads of the rod, K1151C ATP-engaged heads, A715C the arm/arm interface near the hinge
[3] = biological target: Smc(S152C, mH, E1118Q)-HaloTag (Bacillus subtilis) (UniProt P51834); assay: as above
[4] = biological target: the molecule itself; assay: crystal structure; BsSmcCC2, hanging drop, 4°C, PEG 3350, Tris pH 8, MPD, calcium acetate; space group P1, two dimers in the asymmetric unit

Molecule: Smc(D193C, mH, E1118Q)-HaloTag (from UniProt P51834 1-1186) (natural protein)
cross-linking relative to wild type (% of wild-type levels) [2]: 20

B1: BsSmcCC2 (domain or fragment, Bacillus subtilis)
chain: EKVQMAKEEELAESSAISAKEAKIEDTRDKIQALDESVDELQQVLLVTSEELEKLEGRKEVLKERKKNAVQNQEQLEEAIVQFQQKETVLKEELSKQEAVFETLQAEVKQLRAQVKEKQQALSLHNENVEEKIESGGSGGSRLTKQKQTQSSTKESLSNELTELKIAAAKKEQACKGEEDNLARLKKELTETELALKEAKEDLSFLTSEMSSSTSGEEKLEEAAKHKLNDKTKTIELIALRRDQRIKLQHGLDTYERELKEMKRLYKQKTTLLKDEEV
notes: Smc of Bacillus subtilis, residues 246-379 (N-terminal coiled-coil helix); linker; Smc of Bacillus subtilis, residues 793-929 (C-terminal coiled-coil helix); Selenomethionine-labelled protein was used for the SAD data; also called Smc middle segment; Bs Smc (246-379)/SGGSGGS/(793-929); source: E. coli BL21[DE3], purified (His-Trap, MonoQ, TEV cleavage, Superdex 200); not shown: His6, N-terminal, …
binding result [4]: binds

Other lines, results leading:

half-life of the hinge dimer (subunit exchange) [1]: 49 min
Molecule: BsSmcH-CC8(R558C) (from UniProt P51834 519-637) (domain or fragment)

cross-linking relative to wild type (% of wild-type levels) [3]: 20
Molecule: Smc(S152C, mH, E1118Q)-HaloTag (from UniProt P51834 1-1186) (natural protein)
